Experimental data: patent US20120100141A1 (GlaxoSmithKline, published 2012)

B4: Rat serum albumin (RSA) (other, UniProt P02770 25-608, looked up)
chain: EAHKSEIAHRFKDLGEQHFKGLVLIAFSQYLQKCPYEEHIKLVQEVTDFAKTCVADENAENCDKSIHTLFGDKLCAIPKLRDNYGELADCCAKQEPERNECFLQHKDDNPNLPPFQRPEAEAMCTSFQENPTSFLGHYLHEVARRHPYFYAPELLYYAEKYNEVLTQCCTESDKAACLTPKLDAVKEKALVAAVRQRMKCSSMQRFGERAFKAWAVARMSQRFPNAEFAEITKLATDVTKINKECCHGDLLECADDRAELAKYMCENQATISSKLQACCDKPVLQKSQCLAEIEHDNIPADLPSIAADFVEDKEVCKNYAEAKDVFLGTFLYEYSRRHPDYSVSLLLRLAKKYEATLEKCCAEGDPPACYGTVLAEFQPLVEEPKNLVKTNCELYEKLGEYGFQNAVLVRYTQKAPQVSTPTLVEAARNLGRVGTKCCTLPEAQRLPCVEDYLSAILNRLCVLHEKTPVSEKVTKCCSGSLVERRPCFSALTVDETYVPKEFKAETFTFHSDICTLPDKEKQIKKQTALAELVKHKPKATEDQLKTVMGDFAQFVDKCCKAADKDNCFATEGPNLVARSKEALA

What was measured:
[1] = biological target: T1, Exendin 4, (G4S)3, linker DOM7h-11-15 fusion (DMS7143); test: SPR (Biacore), albumin on CM5 chip, fusion in flow
T1 construct: expressed in E. coli with a cleaved OmpT AWA leader
Method: (§1) The analysis was performed using two CM5 chips (carboxymethylated dextran matrix) that were coated with serum albumin. ˜500 resonance units (RUs) of each serum albumin was immobilised in acetate buffer pH 4.5. The first chip had flow cell 1 uncoated and blocked and flow cell 2 was coated with MSA (560Rus). The second chip had flow cell 1 uncoated and blocked, flow cell 2 was coated with HSA, flow cell 3 was coated with CSA and flow cell 4 was coated with RSA. For all serum albumins, the aim was to coat in the region of 350 RUs of protein onto the chip.
(§2) Affinity (KD) was calculated from the BIACORE traces by fitting on-rate and off-rate curves to traces generated by concentrations of dAb in the region of the KD.

[2] = biological target: T2, Exendin 4, (G4S)3, linker DOM7h-14-10 fusion (DMS7139); test: SPR (Biacore), albumin on CM5 chip, fusion in flow
T2 construct: expressed in E. coli with a cleaved OmpT AWA leader; also called DSM7139
Method: as §1, §2

[3] = biological target: T3, Exendin 4 (G4S linker)3 DOM7h-14 dAb fusion (DAT0115); test: SPR (Biacore), biotinylated albumin on SA chip, fusion in flow
T3 construct: also called Exendin 4 (G4S)3 DOM7h-14 fusion
Method: The analysis was performed using a streptavidin chip (SA) coated with biotinylated serum albumin. 200-1000 resonance units (RUs) of each serum albumin was immobilised on the chip. Flow cell 1 was uncoated, flow cell 2 was coated with HSA, flow cell 3 was coated with RSA and flow cell 4 was coated with CSA.
as §2

[4] = biological target: T2, Exendin 4, (G4S)3, linker DOM7h-14-10 …; test: melanophore functional GLP-1R bioassay
Rat serum albumin (RSA) = biological target: B4; test: SPR (Biacore), albumin on CM5 chip, fusion in flow
Method: (§3) The analysis was performed using a CM5 Biacore chip (carboxymethylated dextran matrix) that was coated with serum albumin. About 1000 resonance units (RUs) of each serum albumin to be tested (human, rat and mouse serum albumin) was immobilised in acetate buffer pH 5.5. […] Each fusion molecule tested was expressed in mammalian tissue culture as described in the example above.
as §2

[5] = biological target: Human serum albumin (HSA) (human, UniProt P02768 25-609); test: SPR (Biacore), albumin on CM5 chip, fusion in flow
Method: as §3, §2

[6] = biological target: Mouse serum albumin (MSA) (mouse, UniProt P07724 25-608); test: SPR (Biacore), albumin on CM5 chip, fusion in flow
Method: as §3, §2

[7] = biological target: T4, Exendin 4-DOM7h-14 dAb fusion (DAT0116); test: 6CRE-luciferase reporter in CHO cells with human GLP-1R (called GLP-1R binding assay)
T4 construct: also called Exendin 4 DOM7h-14 fusion

[8] = biological target: T5, Exendin 4, helical linker, DOM7h-14 dAb fusion (DAT0117); test: as above
T5 construct: also called Exendin 4, helical linker, DOM7h-14 fusion

[9] = biological target: T3, Exendin 4 (G4S linker)3 DOM7h-14 dAb …; test: as above

Sequence of Mouse serum albumin (MSA) (P07724 25-608 limits assumed): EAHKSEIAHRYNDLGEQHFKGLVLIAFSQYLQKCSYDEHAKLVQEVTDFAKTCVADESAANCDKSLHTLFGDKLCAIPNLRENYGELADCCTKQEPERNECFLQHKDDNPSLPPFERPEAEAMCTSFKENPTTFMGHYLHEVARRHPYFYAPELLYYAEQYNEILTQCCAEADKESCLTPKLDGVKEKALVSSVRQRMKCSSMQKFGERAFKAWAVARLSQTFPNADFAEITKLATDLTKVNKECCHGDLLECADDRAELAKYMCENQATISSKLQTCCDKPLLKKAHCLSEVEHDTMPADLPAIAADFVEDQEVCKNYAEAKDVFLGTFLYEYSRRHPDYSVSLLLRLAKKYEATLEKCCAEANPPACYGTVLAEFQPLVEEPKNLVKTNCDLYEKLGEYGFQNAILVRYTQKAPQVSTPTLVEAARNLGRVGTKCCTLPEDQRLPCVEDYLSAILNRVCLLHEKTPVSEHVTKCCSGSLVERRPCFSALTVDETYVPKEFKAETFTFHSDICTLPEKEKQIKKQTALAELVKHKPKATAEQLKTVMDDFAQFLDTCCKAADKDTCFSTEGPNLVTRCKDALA

B1: Cynomolgus monkey serum albumin (CSA) (other, UniProt A2V9Z4 25-608, looked up)
chain: DTHKSEVAHRFKDLGEEHFKGLVLVAFSQYLQQCPFEEHVKLVNEVTEFAKTCVADESAENCDKSLHTLFGDKLCTVATLRETYGEMADCCAKQEPERNECFLQHKDDNPNLPPLVRPEVDVMCTAFHDNEATFLKKYLYEVARRHPYFYAPELLFFAARYKAAFAECCQAADKAACLLPKLDELRDEGKASSAKQRLKCASLQKFGDRAFKAWAVARLSQKFPKAEFAEVSKLVTDLTKVHTECCHGDLLECADDRADLAKYMCENQDSISSKLKECCDKPLLEKSHCLAEVENDEMPADLPSLAADYVESKDVCKNYAEAKDVFLGMFLYEYARRHPDYSVMLLLRLAKAYEATLEKCCAAADPHECYAKVFDEFQPLVEEPQNLVKQNCELFEQLGEYKFQNALLVRYTKKVPQVSTPTLVEVSRNLGKVGAKCCKLPEAKRMPCAEDYLSVVLNRLCVLHEKTPVSEKVTKCCTESLVNRRPCFSALELDEAYVPKAFNAETFTFHADMCTLSEKEKQVKKQTALVELVKHKPKATKEQLKGVMDNFAAFVEKCCKADDKEACFAEEGPKFVAASQAALA
notes: CSA is not spelled out where it is used; also called cynomolgus serum albumin; cyno serum albumin
- Kd [1]: 38.9 nM
- Kd [2]: 42.3 nM
- Kd [3]: 2000 nM

B2: Rat GLP-1 receptor (receptor, UniProt P32301 22-463, looked up)
chain: GPRPQGATVSLSETVQKWREYRHQCQRFLTEAPLLATGLFCNRTFDDYACWPDGPPGSFVNVSCPWYLPWASSVLQGHVYRFCTAEGIWLHKDNSSLPWRDLSECEESKQGERNSPEEQLLSLYIIYTVGYALSFSALVIASAILVSFRHLHCTRNYIHLNLFASFILRALSVFIKDAALKWMYSTAAQQHQWDGLLSYQDSLGCRLVFLLMQYCVAANYYWLLVEGVYLYTLLAFSVFSEQRIFKLYLSIGWGVPLLFVIPWGIVKYLYEDEGCWTRNSNMNYWLIIRLPILFAIGVNFLVFIRVICIVIAKLKANLMCKTDIKCRLAKSTLTLIPLLGTHEVIFAFVMDEHARGTLRFVKLFTELSFTSFQGFMVAVLYCFVNNEVQMEFRKSWERWRLERLNIQRDSSMKPLKCPTSSVSSGATVGSSVYAATCQNSCS
notes: whole, on cells
- binding result [4]: binds

B3: Mouse GLP-1 receptor (receptor, UniProt O35659 22-463, looked up)
chain: GPRPQGTTVSLSETVQKWREYRRQCQRFLTEAPLLATGLFCNRTFDDYACWPDGPPGSFVNVSCPWYLPWASSVLQGHVYRFCTAEGLWLHKDNSSLPWRDLSECEESKRGERNFPEEQLLSLYIIYTVGYALSFSALVIASAILVGFRHLHCTRNYIHLNLFASFILRALSVFIKDAALKWMYSTAAQQHQWDGLLSYQDSLGCRLVFLLMQYCVAANYYWLLVEGVYLYTLLAFSVFSEQRIFKLYLSIGWGVPLLFVIPWGIVKYLYEDEGCWTRNSNMNYWLIIRLPILFAIGVNFLIFIRVICIVVSKLKANLMCKTDIKCRLAKSTLTLIPLLGTHEVIFAFVMDEHARGTLRFIKLFTELSFTSFQGLMVAILYCFVNNEVQMEFRKCWERWRLEHLNIQRDCSMKPLKCPTSSVSSGATVGSSVYAATCQSSYS
notes: whole, on cells
- binding result [4]: binds

Binder: B4
- Kd [1]: 219 nM
- Kd [2]: 31.5 nM
- Kd [3]: 2000 nM

B5: 2xGLP-1 (7-37) A8G DOM7h-14 dAb fusion (DAT0114) (other)
chain: HGEGTFTSDVSSYLEGQAAKEFIAWLVKGRHGEGTFTSDVSSYLEGQAAKEFIAWLVKGRDIQMTQSPSSLSASVGDRVTITCRASQWIGSQLSWYQQKPGKAPKLLIMWRSSLQSGVPSRFSGSGSGTDFTLTISSLQPEDFATYYCAQGAALPRTFGQGTKVEIKR
notes: expressed in HEK293E cells, purified on protein L; also called 2xGLP-1 (7-37) A8G DOM7h-14 fusion
- Kd (Rat serum albumin (RSA)): 700 nM
- Kd [5]: 150 nM
- Kd [6]: 130 nM

B6: Human GLP-1 receptor (receptor, UniProt P43220 24-463, looked up)
chain: RPQGATVSLWETVQKWREYRRQCQRSLTEDPPPATDLFCNRTFDEYACWPDGEPGSFVNVSCPWYLPWASSVPQGHVYRFCTAEGLWLQKDNSSLPWRDLSECEESKRGERSSPEEQLLFLYIIYTVGYALSFSALVIASAILLGFRHLHCTRNYIHLNLFASFILRALSVFIKDAALKWMYSTAAQQHQWDGLLSYQDSLSCRLVFLLMQYCVAANYYWLLVEGVYLYTLLAFSVLSEQWIFRLYVSIGWGVPLLFVVPWGIVKYLYEDEGCWTRNSNMNYWLIIRLPILFAIGVNFLIFVRVICIVVSKLKANLMCKTDIKCRLAKSTLTLIPLLGTHEVIFAFVMDEHARGTLRFIKLFTELSFTSFQGLMVAILYCFVNNEVQLEFRKSWERWRLEHLHIQRDSSMKPLKCPTSSLSSGATAGSSMYTATCQASCS
notes: whole, on cells
- binding result [7]: binds
- binding result [8]: binds
- binding result [9]: binds
- binding result [4]: binds

B7: GLP-1 (7-37) A8G, helical linker, DOM7h-14 dAb fusion (DAT0120) (other)
chain: HGEGTFTSDVSSYLEGQAAKEFIAWLVKGRGKEAAAKEAAAKEAAAKELAAKEAAAKEAAAKEAAAKELAADIQMTQSPSSLSASVGDRVTITCRASQWIGSQLSWYQQKPGKAPKLLIMWRSSLQSGVPSRFSGSGSGTDFTLTISSLQPEDFATYYCAQGAALPRTFGQGTKVEIKR
notes: Single-chain genetic fusion of GLP-1 (7-37) A8G, helical linker and DOM7h-14; also called GLP-1 (7-37) A8G, helical linker, DOM7h-14 fusion; GLP-1 A8G, helical linker, DOM7h-14 fusion
- Kd (Rat serum albumin (RSA)): 800 nM
- Kd [5]: 110 nM
- Kd [6]: 110 nM
